According to article doi:10.1101/2025.05.26.656073 (bioRxiv, 2025):
Positions count from the first letter of the chain named. In names and notes the source's numbering stands.

Key:
[1] = target: T1, apo-OCP (carotenoid-free Orange Carotenoid Protein) (Synechocystis sp. PCC 6803), P74102; test: SAXS; settings: remark: other sources report otherwise
T1 chain: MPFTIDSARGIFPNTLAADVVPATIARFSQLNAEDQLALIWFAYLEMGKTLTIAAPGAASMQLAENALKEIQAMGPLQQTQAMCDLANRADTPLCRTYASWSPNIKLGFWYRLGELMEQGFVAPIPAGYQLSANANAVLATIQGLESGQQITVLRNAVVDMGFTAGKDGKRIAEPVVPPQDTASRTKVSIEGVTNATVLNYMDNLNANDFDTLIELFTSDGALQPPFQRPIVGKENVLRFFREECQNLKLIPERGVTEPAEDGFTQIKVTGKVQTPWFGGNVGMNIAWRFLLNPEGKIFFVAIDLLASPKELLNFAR

[2] = target: T1, apo-OCP (carotenoid-free Orange …); test: SEC; settings: remark: other sources report otherwise
[3] = target: T2, Orange Carotenoid Protein, light-adapted state (OCP^R), wild type, canthaxanthin-binding holo form (Synechocystis sp. PCC 6803), P74102; test: SAXS; settings: remark: other sources report otherwise
T2 chain: T1 chain

[4] = target: T2, Orange Carotenoid Protein, …; test: SEC; settings: remark: other sources report otherwise
SEC = target: the molecule itself; test: SEC
[5] = target: T3, Orange Carotenoid Protein, dark-adapted state (OCP^O), wild type, canthaxanthin-binding holo form (Synechocystis sp. PCC 6803), P74102; test: SAXS; settings: remark: other sources report otherwise
T3 chain: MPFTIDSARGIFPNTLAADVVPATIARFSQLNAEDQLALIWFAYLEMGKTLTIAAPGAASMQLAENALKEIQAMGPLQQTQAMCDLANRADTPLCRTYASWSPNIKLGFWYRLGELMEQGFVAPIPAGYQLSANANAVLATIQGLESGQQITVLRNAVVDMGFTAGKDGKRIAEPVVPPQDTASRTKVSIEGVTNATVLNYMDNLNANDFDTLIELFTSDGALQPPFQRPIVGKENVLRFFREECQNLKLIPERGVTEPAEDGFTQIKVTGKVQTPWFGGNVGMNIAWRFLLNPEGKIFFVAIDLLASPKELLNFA

[6] = target: T3, Orange Carotenoid Protein, dark-adapted …; test: SEC; settings: remark: other sources report otherwise
[7] = target: T3, Orange Carotenoid Protein, dark-adapted …; test: transient grating spectroscopy; settings: remark: other sources report otherwise

B1: apo-OCP (carotenoid-free Orange Carotenoid Protein), P74102 1-317 (natural protein)
chain: T1 chain
With B1 the stoichiometry N [1] was 2, the Kd [2] was 500 nM and the stoichiometry N [2] was 2.

B2: Orange Carotenoid Protein, light-adapted state (OCP^R), wild type, canthaxanthin-binding holo form, P74102 1-317 (natural protein)
chain: T1 chain
In the case of B2, the stoichiometry N [3] is reported as 2, the Kd [4] is reported as 1800 nM and the stoichiometry N [4] is reported as 2.

B3: OCP(R27L) mutant, light-adapted state (natural protein)
chain: T1 chain with R27L
For B3, the “stoichiometry N” value (SEC) was 2.

B4: Orange Carotenoid Protein, dark-adapted state (OCP^O), wild type, canthaxanthin-binding holo form, P74102 1-316 (natural protein)
chain: T3 chain
Work on B4 yielded a stoichiometry N [5] of 2, a Kd [6] of 10000 nM and a stoichiometry N [6] of 2. For the same binder, the fitted dimer fraction (100 µM) [7] was 0.6 and the k1d (rate constant of the photo-induced dissociation of the OCP^O dimer) [7] was 1000 s⁻¹.
